B1: unnamed (protein)
chain: SNPYQRGPNPTRSALTADGPFSVATYTVSRLSVSGFGGGVIYYPTGTSLTFGGIAMSPGYTADASSLAWLGRRLASHGFVVLVINTNSRFDYPDSRASQLSAALNYLRTSSPSAVRARLDANRLAVAGHSMGGGGTLRIAEQNPSLKAAVPLTPWHTDKTFNTSVPVLIVGAEADTVAPVSQHAIPFYQNLPSTTPKVYVELDNASHFAPNSNNAAISVYTISWMKLWVDNDTRYRQFLCNVNDPALSDFRTNNRHCQLEHHHHHH
B2: unnamed (protein)
chain: QTNPYARGPNPTAASLEASAGPFTVRSFTVSRPSGYGAGTVYYPTNAGGTVGAIAIVPGYTARQSSIKWWGPRLASHGFVVITIDTNSTFDYPSSRSSQQMAALRQVASLNGDSSSPIYGKVDTARMGVMGHSMGGGASLRSAANNPSLKAAIPQAPWDSQTNFSSVTVPTLIFACENDSIAPVNSHALPIYDSMSRNAKQFLEINGGSHSCANSGNSNQALIGKKGVAWMKRFMDNDTRYSTFACENPNSTAVSDFRTANCSLEHHHHHH
B3: unnamed (protein)
chain: MSNPYQRGPNPTRSALTADGPFSVATYTVSRLSVSGFGGGVIYYPTGTSLTFGGIAMSPGYTADASSLAWLGRRLASHGFVVLVINTNSRFDYPDSRASQLSAALNYLRTSSPSAVRARLDANRLAVAGHSMGGGGTLRIAEQNPSLKAAVPLTPWHTDKTFNTSVPVLIVGAEADTVAPVSQHAIPFYQNLPSTTPKVYVELCNASHIAPMSNNAAISVYTISWMKLWVDNDTRYRQFLCNVNDPALCDFRTNNRHCQLEHHHHHH
B4: unnamed (protein)
chain: QTNPYARGPNPTAASLEASAGPFTVRSFTVSRPSGYGAGTVYYPTNAGGTVGAIAIVPGYTARQSSIKWWGPRLASHGFVVITIDTNSTLDQPESRSSQQMAALRQVASLNGTSSSPIYGKVDTARMGVMGWSMGGGGSLISAANNPSLKAAAPQAPWHSSTNFSSVTVPTLIFACENDSIAPVNSSALPIYDSMSRNAKQFLEINGGSHSCANSGNSNQALIGKKGVAWMKRFMDNDTRYSTFACENPNSTAVSDFRTANCSLEHHHHHH
B5: unnamed (protein)
chain: QTNPYARGPNPTAASLEASAGPFTVRSFTVSRPSGYGAGTVYYPTNAGGTVGAIAIVPGYTARQSSIKWWGPRLASHGFVVITIDTNSTLDQPESRSSQQMAALRQVASLNGTSSSPIYGKVDTARMGVMGWSMGGGGSLISAANNPSLKAAAPQAPWHSSTNFSSVTVPTLIFACENDSIAPVNSSALPIYDSMSQNAKQFLEIKGGSHSCANSGNSNQALIGKKGVAWMKRFMDNDTRYSTFACENPNSTAVSDFRTANCSLEHHHHHH
B6: unnamed (protein)
chain: QTNPYARGPNPTAASLEASAGPFTVRSFTVSRPSGYGAGTVYYPTNAGGTVGAIAIVPGYTARQSSIKWWGPRLASHGFVVITIDTNSTLDQPSSRSSQQMAALRQVASLNGTSSSPIYGKVDTARMGVMGWSMGGGGSLISAANNPSLKAAAPQAPWDSSTNFSSVTVPTLIFACENDSIAPVNSSALPIYDSMSRNAKQFLEINGGSHSCANSGNSNQALIGKKGVAWMKRFMDNDTRYSTFACENPNSTRVSDFRTANCSLEHHHHHH

Substrate: PET
Assay: Proxy for plastic degradation [Released monomer concentration (HPLC/LC-MS) (MHET+TPA)]
Conditions: pH 6.5; 30 °C

In order of rising “Proxy for plastic degradation” value:
1. B1  0.17 mM
2. B3  0.18 mM

Same assay, conditions: pH 6.5; 40 °C

In order of falling “Proxy for plastic degradation” value:
1. B3  0.8 mM
2. B1  0.2 mM

Same assay, conditions: pH 7; 30 °C

In order of rising “Proxy for plastic degradation” value:
1. B1  0.2 mM
2. B3  0.23 mM

Same assay, conditions: pH 7; 40 °C

In order of falling “Proxy for plastic degradation” value:
1. B3  2 mM
2. B1  0.4 mM

Same assay, conditions: pH 7.5; 30 °C

In order of falling “Proxy for plastic degradation” value:
1. B3  0.23 mM
2. B1  0.22 mM

Same assay, conditions: pH 7.5; 40 °C

In order of falling “Proxy for plastic degradation” value:
1. B3  3 mM
2. B1  1.9 mM

Same assay, conditions: pH 8; 30 °C

In order of falling “Proxy for plastic degradation” value:
1. B3  0.37 mM
2. B1  0.25 mM

Same assay, conditions: pH 8; 40 °C

In order of rising “Proxy for plastic degradation” value:
1. B1  2.3 mM
2. B3  4 mM

Same assay, conditions: pH 6.5; 30 °C; part of the chain shown

In order of rising “Proxy for plastic degradation” value:
1. B6  0.1 mM
2. B2  0.15 mM
3. B4  0.6 mM
4. B5  0.7 mM

Same assay, conditions: pH 6.5; 40 °C; part of the chain shown

In order of falling “Proxy for plastic degradation” value:
1. B5  1 mM
2. B4  0.5 mM
3. B2  0 mM
4. B6  0 mM

Same assay, conditions: pH 7; 30 °C; part of the chain shown

In order of falling “Proxy for plastic degradation” value:
1. B5  1.5 mM
2. B4  1.2 mM
3. B2  0.15 mM
4. B6  0.15 mM

Same assay, conditions: pH 7; 40 °C; part of the chain shown

In order of falling “Proxy for plastic degradation” value:
1. B5  12 mM
2. B4  9 mM
3. B2  0.3 mM
4. B6  0 mM

Same assay, conditions: pH 7.5; 30 °C; part of the chain shown

In order of falling “Proxy for plastic degradation” value:
1. B5  2.9 mM
2. B4  2.3 mM
3. B6  0.25 mM
4. B2  0.2 mM

Same assay, conditions: pH 7.5; 40 °C; part of the chain shown

In order of rising “Proxy for plastic degradation” value:
1. B6  0 mM
2. B2  1 mM
3. B4  12 mM
4. B5  19 mM

Same assay, conditions: pH 8; 30 °C; part of the chain shown

In order of falling “Proxy for plastic degradation” value:
1. B5  3.6 mM
2. B4  2.9 mM
3. B6  0.6 mM
4. B2  0.15 mM

Same assay, conditions: pH 8; 40 °C; part of the chain shown

In order of falling “Proxy for plastic degradation” value:
1. B5  32 mM
2. B4  13 mM
3. B2  2 mM
4. B6  0.2 mM

Same assay, conditions: pH 8; 1 h; part of the chain shown

For B5, the “Proxy for plastic degradation” value was 13.4 mM.

Same assay, conditions: pH 8; 2 h; part of the chain shown

With B5 the “Proxy for plastic degradation” value was 31.1 mM.

Same assay, conditions: pH 8; 3 h; part of the chain shown

B5 was tested, and the “Proxy for plastic degradation” value was 48.7 mM.

Same assay, conditions: pH 8; 4 h; part of the chain shown

With B5 the “Proxy for plastic degradation” value was 66.7 mM.

Same assay, conditions: pH 8; 5 h; part of the chain shown

For B5, the “Proxy for plastic degradation” value was 88 mM.

Same assay, conditions: pH 8; 6 h; part of the chain shown

B5 was tested, and the “Proxy for plastic degradation” value was 109 mM.

Same assay, conditions: pH 8; 7 h; part of the chain shown

In the case of B5, the “Proxy for plastic degradation” value is reported as 131 mM.

Same assay, conditions: pH 8; 8 h; part of the chain shown

B5 was tested, and the “Proxy for plastic degradation” value was 148 mM.

Same assay, conditions: pH 8; 9 h; part of the chain shown

In the case of B5, the “Proxy for plastic degradation” value is reported as 163 mM.

Same assay, conditions: pH 8; 10 h; part of the chain shown

For B5, the “Proxy for plastic degradation” value was 175 mM.

Same assay, conditions: pH 8; 11 h; part of the chain shown

In the case of B5, the “Proxy for plastic degradation” value is reported as 185 mM.

Same assay, conditions: pH 8; 12 h; part of the chain shown

B5 was tested, and the “Proxy for plastic degradation” value was 195 mM.

Same assay, conditions: pH 8; 13 h; part of the chain shown

B5 was tested, and the “Proxy for plastic degradation” value was 204 mM.

Same assay, conditions: pH 8; 13.5 h; part of the chain shown

For B5, the “Proxy for plastic degradation” value was 208 mM.
